# Read-outs that look alike come from different tables or passages of the source.
# Key:
# CaBdf1 BD1 [1] = target: T1, CaBdf1 BD1 (Candida albicans, UniProt Q5A4W8); test: HTRF assay, inhibition of BD binding to H4ac4 peptide; set-up: species or system C. albicans; conditions: HTRF, H4ac4 peptide; BETi, maximal concentration 10 μM; read-out: IC50 values
# T1 construct: made in house; host or cells: E. coli BL21(DE3)
# CaBdf1 BD2 [2] = target: CaBdf1 BD2 (Candida albicans, UniProt Q5A4W8); test: as above; set-up: made in house; host or cells: E. coli BL21(DE3)
# CaBdf1 BD1 [3] = target: T2, CaBdf1 BD1 (Candida albicans, UniProt Q5A4W8); type: binding; conditions: wild-type BD1; for CaBdf1 BD1 Normalized (0 to 100%) WT: normalized array signal; for CaBdf1 BD1 Raw data WT: peptide array signal;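 on CaBdf1 BD1 Normalized (0 to 100%) WT: normalized to spotted c-myc peptide positive control signal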
# T2 construct: made in house; host or cells: E. coli BL21(DE3)
# T2 sequence (Q5A4W8 whole entry, looked up): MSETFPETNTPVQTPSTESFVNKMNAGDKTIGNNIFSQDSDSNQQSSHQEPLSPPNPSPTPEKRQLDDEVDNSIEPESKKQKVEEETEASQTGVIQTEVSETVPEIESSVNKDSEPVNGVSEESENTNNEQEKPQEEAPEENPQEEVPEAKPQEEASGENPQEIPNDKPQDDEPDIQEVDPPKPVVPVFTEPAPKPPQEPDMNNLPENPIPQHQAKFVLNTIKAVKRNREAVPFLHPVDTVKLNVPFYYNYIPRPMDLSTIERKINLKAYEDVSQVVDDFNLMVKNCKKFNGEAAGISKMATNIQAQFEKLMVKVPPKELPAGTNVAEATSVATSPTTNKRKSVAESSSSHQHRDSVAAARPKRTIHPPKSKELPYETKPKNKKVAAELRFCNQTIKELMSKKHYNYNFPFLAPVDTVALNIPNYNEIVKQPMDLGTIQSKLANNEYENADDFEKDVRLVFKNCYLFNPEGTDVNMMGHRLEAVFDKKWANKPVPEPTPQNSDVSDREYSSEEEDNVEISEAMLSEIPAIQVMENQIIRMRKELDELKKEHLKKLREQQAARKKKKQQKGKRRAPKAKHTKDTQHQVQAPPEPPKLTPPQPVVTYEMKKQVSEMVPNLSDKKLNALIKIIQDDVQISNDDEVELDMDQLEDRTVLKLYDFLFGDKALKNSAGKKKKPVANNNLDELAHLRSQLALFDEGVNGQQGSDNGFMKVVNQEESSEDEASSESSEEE
# Experimental: (§1) In short, arrays were blocked and incubated with 1 μM of purified CaBdf1 BD1 or BD2. Arrays were incubated with recombinant BDs for 2 h at 4 °C in binding buffer (Tris-HCl 50 mM pH 7.4, NP-40 0.1%, NaCl 150 mM, glycerol 10%). […] Assays were performed in duplicate.
# CaBdf1 BD2 [4] = target: T3, CaBdf1 BD2 (Candida albicans, UniProt Q5A4W8); type: binding; conditions: wild-type BD2; for CaBdf1 BD2 Normalized (0 to 100%) WT: normalized array signal; for CaBdf1 BD2 Raw data WT: peptide array signal;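 on CaBdf1 BD2 Normalized (0 to 100%) WT: normalized to spotted c-myc peptide positive control signal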
# T3 construct: made in house; host or cells: E. coli BL21(DE3)
# T3 sequence (Q5A4W8 whole entry, looked up): T2 sequence (Q5A4W8 whole entry, looked up)
# Experimental: as §1
# CaBdf1 BD1 Y248F = target: T4, CaBdf1 BD1 Y248F (Candida albicans, UniProt Q5A4W8, Y248F); test: Histone peptide microarray binding, YF mutant;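 on CaBdf1 BD1 Normalized (0 to 100%) YF mutant: normalized to spotted c-myc peptide positive control signal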; set-up: species or system C. albicans; conditions: YF mutant BD1; for CaBdf1 BD1 Normalized (0 to 100%) YF mutant: normalized array signal; for CaBdf1 BD1 Raw data YF mutant: peptide array signal
# T4 construct: made in house; host or cells: E. coli BL21(DE3), inferred from the wild-type GST construct
# Experimental: (§2) In short, arrays were blocked and incubated with 1 μM of purified CaBdf1 BD1 or BD2. Arrays were incubated with recombinant BDs for 2 h at 4 °C in binding buffer (Tris-HCl 50 mM pH 7.4, NP-40 0.1%, NaCl 150 mM, glycerol 10%). […] Assays were performed in duplicate. Images were acquired on a Bio-Rad ChemiDoc XRS Imaging machine and data were quantified using the array analyser software provided by Active Motif.
# CaBdf1 BD2 Y425F = target: T5, CaBdf1 BD2 Y425F (Candida albicans, UniProt Q5A4W8, Y425F); test: Histone peptide microarray binding, YF mutant;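 on CaBdf1 BD2 Normalized (0 to 100%) YF mutant: normalized to spotted c-myc peptide positive control signal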; set-up: species or system C. albicans; conditions: YF mutant BD2; for CaBdf1 BD2 Normalized (0 to 100%) YF mutant: normalized array signal; for CaBdf1 BD2 Raw data YF mutant: peptide array signal
# T5 construct: made in house; host or cells: E. coli BL21(DE3), inferred from the wild-type GST construct
# Experimental: as §2
# T4 sequence (Q5A4W8 193-327 Y248F): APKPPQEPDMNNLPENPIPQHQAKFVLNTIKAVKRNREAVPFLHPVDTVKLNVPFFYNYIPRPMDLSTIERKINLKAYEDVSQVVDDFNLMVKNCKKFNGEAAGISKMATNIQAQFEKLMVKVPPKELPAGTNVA
# T5 sequence (Q5A4W8 361-501 Y425F): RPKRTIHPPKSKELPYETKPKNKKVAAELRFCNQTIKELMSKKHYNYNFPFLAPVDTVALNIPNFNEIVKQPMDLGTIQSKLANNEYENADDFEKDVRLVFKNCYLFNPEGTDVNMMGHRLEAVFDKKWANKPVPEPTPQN
Compound,IC50 (CaBdf1 BD1 [1]) [nM],IC50 (CaBdf1 BD2 [2]) [nM],CaBdf1 BD1 Normalized (0 to 100%) WT (CaBdf1 BD1 [3]) [%],CaBdf1 BD1 Raw data WT (CaBdf1 BD1 [3]; first of two raw-data columns),CaBdf1 BD1 Raw data WT (CaBdf1 BD1 [3]),CaBdf1 BD2 Normalized (0 to 100%) WT (CaBdf1 BD2 [4]) [%],CaBdf1 BD2 Raw data WT (CaBdf1 BD2 [4]; first of two raw-data columns),CaBdf1 BD2 Raw data WT (CaBdf1 BD2 [4]),CaBdf1 BD1 Normalized (0 to 100%) YF mutant (CaBdf1 BD1 Y248F) [%],CaBdf1 BD1 Raw data YF mutant (CaBdf1 BD1 Y248F; first of two raw-data columns),CaBdf1 BD1 Raw data YF mutant (CaBdf1 BD1 Y248F),CaBdf1 BD2 Normalized (0 to 100%) YF mutant (CaBdf1 BD2 Y425F) [%],CaBdf1 BD2 Raw data YF mutant (CaBdf1 BD2 Y425F; first of two raw-data columns),CaBdf1 BD2 Raw data YF mutant (CaBdf1 BD2 Y425F)
"CCOC(=O)Nc1cc(-c2ccc(C)c(NS(C)(=O)=O)c2)nn2c(C)nnc12 [Bromosporine, reference compound]",> 10000,313 ± 2,–,–,–,–,–,–,–,–,–,–,–,–
"COc1cc2c(cc1-c1c(C)noc1C)ncc1[nH]c(=O)n([C@H](C)c3ccccn3)c12 [IBET-151, reference compound]",303 ± 120,1470 ± 90,–,–,–,–,–,–,–,–,–,–,–,–
"COc1ccccc1S(=O)(=O)Nc1ccc2c(c1)CN(C)C(=O)N2 [PFI-1, reference compound]",> 10000,~10000,–,–,–,–,–,–,–,–,–,–,–,–
A Rme2s T Kme1 Q T A R Kme3 S T G G K A P R K Q,–,–,0.326,0.00481,0.003741,0.259,0.0151,0.001373,0.727,0.007202,0.002743,0.195,–,–
A Rme2s T Kme1 Q T A Rme2s K S T G G K A P R K Q,–,–,0.326,0.004276,0.004276,0.444,0.006863,0.01304,0.45,0.004458,0.01166,0.147,0.001456,0.001456
A Rme2s T Kme2 Q T A R Kme1 S T G G K A P R K Q,–,–,0.544,0.006414,0.005345,0.444,0.01441,0.005491,0.762,–,0.005144,0.244,0.002427,0.003398
A Rme2s T Kme2 Q T A R Kme3 S T G G K A P R K Q,–,–,0.145,0.004276,0.001603,0.444,0.01716,0.002745,0.312,0.003086,0.002058,0.44,0.004369,0.002427
A Rme2s T Kme2 Q T A Rme2s K S T G G K A P R K Q,–,–,0.181,0.002672,0.003741,0.629,0.00755,0.01579,0.624,0.006173,0.003086,0.244,0.002427,0.004854
A Rme2s T Kme3 Q T A R Kme1 S T G G K A P R K Q,–,–,0.471,0.00481,0.005879,0.444,0.01441,0.005491,0.831,0.00823,0.002743,0.195,–,–
A Rme2s T Kme3 Q T A R Kme3 S T G G K A P R K Q,–,–,0.254,0.003207,0.004276,0.481,0.01784,0.002745,0.797,0.007888,0.003772,0.537,0.00534,0.002427
A Rme2s T Kme3 Q T A Rme2s K S T G G K A P R K Q,–,–,0.29,0.003207,0.00481,0.444,0.008236,0.01167,0.346,0.003429,0.004115,0.244,0.002427,0.003398

# Source: article PMC5454392, “Selective BET bromodomain inhibition as an antifungal therapeutic strategy” (Nature Communications, 2017)
